Source: PMC3315491

biological target: T1, EspR (UniProt P9WJB7); experiment: EMSA
T1 sequence: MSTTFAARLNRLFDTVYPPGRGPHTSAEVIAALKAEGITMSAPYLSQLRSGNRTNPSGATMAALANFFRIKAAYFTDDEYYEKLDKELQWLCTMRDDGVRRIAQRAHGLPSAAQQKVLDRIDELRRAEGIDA

Row | Sequence | binding
1 | GCTCATCGATGTGACCTCCACCGGGCTCCAAGAGCAAACGGTTATCTGTATGTATTTGCTGATCATGGTAGCGACAGTTGTGTCCACAACCAAGTGCAAACCTGAGCGGATT (double strand) [espR peak a EMSA probe] | binds
2 | ACTTGAGTTCTTCAGCAATGATGCATGCACGACTGTAGACCTGCGACCAAGTCAAGCTGTCAGCAAATCCCTTGGGGTCGGATCCGTAGTCGATGTACGTATATGCAGTGCTGTCAGGCT (double strand) [fadD26 peak probe] | binds more weakly
3 | ACCTCAACGACAATTTGCCAGAGCTAGTCAGCGACATAGAAGACAAAACACTCCAATGGCATGATCGAGCTTAGCTATGCTCCGGATGTAGCTGGCCGAAGAT (double strand) [rv2929 peak probe] | binds
4 | GAAAACCGCCCCAGTTGCGGTGTGCGCTAGTTAACATCGCAACTACATATCAGCAAATCAGGGAGAGGAAACCGTGTCGTTTGTGTTGGTGTCTCCGTCGCA (double strand) [pe_pgrs19 peak probe] | binds
5 | TGCGTCGGTTAGTCTCTTTTTCGACCTTGGGGCGCGGAGGGTCGTTATGGTGTGTCACAGTGCTTTGCTGTCAAAGGCATTGGCGGTGCCGACCAAGCGACACT (double strand) [rv1490 peak probe] | binds
6 | TCAGGATGACCGTGTCGGGCGGATGCGGCCGACTCCGGGCAACCAGCAGCCAACGGAGATTCGCCGAGAGCCTCCTTTGCTGCCTGGGTCCGCACAGCGCTCGTCAGGCGA (double strand) [espR peak b EMSA probe] | binds
7 | GCTTGTCCCAAAGCTCTTTCAGGCCGTTGAGCGCGTTTGTGATGAACTCCCACACTTCTCCGAGGGTGCCCTTGATGATGTCCGCCACATCCGAAATGAT (double strand) [espA ORF negative control probe] | no binding
